Changes are numbered by the printed parent chain. Where “and” joins values, the source holds several entries; their conditions need not be identical. Equal entries are not always repeated.

In assay [1] the target is T1, MERS-CoV S S1 subunit (MERS-S1) (MERS-CoV EMC isolate, UniProt K9N5Q8 19-748). Description: affinity measurement of HCAbs (method not told).
Assay [2] addresses T1, MERS-CoV S S1 subunit (MERS-S1). Nature of the assay: ELISA on coated MERS-S1, OD450 [D].
The target in assay [3] is MERS-S1^B domain (receptor binding domain) (MERS-CoV EMC isolate, UniProt K9N5Q8 358-588). Description: ELISA on coated MERS-S1^B, OD450 [D].
Another assay concerns the target T2, MERS-S1^A domain (MERS-CoV EMC isolate, UniProt K9N5Q8 19-357).
T2 sequence: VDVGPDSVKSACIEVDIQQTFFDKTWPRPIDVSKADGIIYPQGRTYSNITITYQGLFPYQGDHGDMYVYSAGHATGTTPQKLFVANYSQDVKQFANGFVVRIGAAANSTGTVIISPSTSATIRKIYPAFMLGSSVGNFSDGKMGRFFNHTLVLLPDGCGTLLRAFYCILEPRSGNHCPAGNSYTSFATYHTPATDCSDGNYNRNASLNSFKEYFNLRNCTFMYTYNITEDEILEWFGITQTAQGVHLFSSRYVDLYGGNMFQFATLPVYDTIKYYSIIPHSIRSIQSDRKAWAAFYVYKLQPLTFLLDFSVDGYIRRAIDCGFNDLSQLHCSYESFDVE
Description: ELISA on coated MERS-S1^A, OD450 [D].

The target of assay [4] is T1, MERS-CoV S S1 subunit (MERS-S1). Description: ForteBio Octet kinetic measurement (FIG. 3A). On the technique in general: In BLI a coated tip is dipped into the sample, and binding shifts an interference pattern.
Assay [5] deals with T3, MERS-S on pseudotyped VSV particles (MERS-S carrying a 16-a.a. cytoplasmic tail truncation) (MERS-CoV, UniProt K9N5Q8 18-1337). Description: cell-based or functional assay.
Assay [6] has as its target T3, MERS-S on pseudotyped VSV particles …. Description: cell-based or functional assay. The source holds these as a separate data set.
The target of assay [7] is MERS-S2 ectodomain (MERS-S2^ecto) (MERS-CoV EMC isolate, UniProt K9N5Q8 752-1262).
The target of the next assay is SARS-CoV spike protein (SARS-CoV, UniProt P59594 15-1182). Nature of the assay: ELISA on SARS Secto. (In general: In an ELISA, binding on a coated surface is turned into a signal by an enzyme label.)
For the next assay, the target named is peptide 10. Description: ELISA on coated overlapping MERS-S2 peptides, A450 [D00032 Fig. 14(B].
The target of a further assay is peptide 11. Described as above.

B1: 1G3 heavy chain-only antibody (antibody, V domains shown)
VH: EVQLVESGGGVVQPGRSLRLSCAASGFTFSSYGMHWVRQAPGKGLEWVAVIWYDGSNKYYADSVKGRFTISRDNSKNTLYLQMNSLRAEDTAVYYCARDERIFGVPDAFDIRGQGTMVTVSS
Usually Kd stands for the free concentration of one partner at which half of the binding sites on the other are occupied at equilibrium, for simple one-to-one binding. In assay [1], B1 returned a Kd of 21.7 nM.

B2: 1.10f3 (antibody, V domains shown)
VH: QVQLVESGGGVVQPGRSLRLSCKASGFTFRGYGMHWVRQAPGKGLEWVTVIWHDASNKYYVDSVKGRFSISRDNSKNTLYLQMNSLRAEDTAVYYCARDAGLSFDIWGQGTMVTVSS
VL: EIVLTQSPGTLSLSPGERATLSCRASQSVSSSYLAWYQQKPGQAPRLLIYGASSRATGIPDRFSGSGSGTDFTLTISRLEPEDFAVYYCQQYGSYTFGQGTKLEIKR
In general, EC50 (read off the curve) refers to the concentration that produces a half-maximal response. Regarding B2, the concentration for a half-maximal effect (EC50 (read off the curve)) in assay [2] is around 0.1 µg/mL; in the assay with MERS-S1^A domain, around 0.07 µg/mL. For the same molecule, the binding result in [3] is “no binding (tested: about 5x10^5 ng/ml)”. The same molecule yielded a Kd in [4] of around 4.8 nM. Also, in assay [5], the “IC50, neutralisation of MERS-S VSV pseudovirus on Vero cells” value (shortened to “IC50, neutralisation”) is > 10 µg/ml and > 66.7 nM.

B3: 1E10 heavy chain-only antibody (antibody, V domains shown)
VH: EVQLLESGGGWVQPGGSLRLSCAASGFTFSTNAMSWVRQAPGKGLEWVSGISGSGGSTDYADSVKGRFTISRDNSKNTLYLQMNSLRAEDTAVYYCAPRIAVAPDALDIWGQGTMVTVSS
As to B3, binding in assay [1] was put at a Kd of 1 nM.

B4: 7.7g6 (antibody, V domains shown)
VH: QVQLVQTGAEVKKPGSSVKVSCKASGGTFSIYAISWVRQAPRQGLEWMGGIIPIFGTANYAQKFQGRVTITADKSTNTAYMELSRLRSEDTAVYYCAREGDDVLVPTSRGFFDYWGQGTLVTVSS
VL: not shown
With B4, the 50% effective concentration (EC50 (read off the curve)) in [2] and in [3] was around 0.02 µg/mL each time. Besides, the binding result with MERS-S1^A domain is “no binding (tested: about 5x10^5 ng/ml)”. In addition, the dissociation constant (Kd) in assay [4] is around 0.36 nM. For the same molecule, the “IC50, neutralization of MERS-S pseudovirus infectivity (H2L2)” value (“IC50, neutralization … (H2L2)” below) in assay [6] was around 0.00011 µg/mL. The “IC50, neutralization of MERS-S pseudovirus infectivity (human IgG1)” value (shortened to “IC50, neutralization … (human IgG1)”) in [6] was around 0.02 µg/mL. For the same molecule, the “IC50, neutralisation” value in assay [5] is 0.001 µg/ml and 0.007 nM.

B5: 5.5e11 (antibody, V domains shown)
VH: QVQLVQSGAEVKKPGSSVKISCKASGGTFSTHAFTWVRQAPGQGLEWIGRIIPIFDTPKYAQKFQGRVTIAADISTSTVFMELSSLRSEDTAVFYCAREGYYISGSYRDAFDIWGQGTMVTVSS
VL: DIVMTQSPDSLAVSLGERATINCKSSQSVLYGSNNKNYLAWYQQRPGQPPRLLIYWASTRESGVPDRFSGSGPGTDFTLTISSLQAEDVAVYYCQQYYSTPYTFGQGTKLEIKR
B5 came in with a dissociation constant Kd in assay [4] of around 0.3 nM. Also, in assay [6], the “IC50, neutralization … (H2L2)” value is around 0.0017 µg/mL.

B6: 1.2g5 (antibody, V domains shown)
VH: QVQLVQSGAEVKKPGSSVKVSCKASGGTFSTYAISWVRQAPGQGLEWMGGIIPIFGTANYAQKFQGRVTIIADKSTNTAYMDLSSLRSEDTAVYYCAREGNLGYDVVTGYSYFVYWGQGTLVTVSS
VL: EIVLTQSPGTLSLSPGERATLSCRASQSVSSSYLAWYQQKPDQVPRLLIYGTSSRATGIPDRFSGSGSGTDFTLTISRLEPEDFAVYYCQQYGRSLTFGGGTKVEIKR
On to B6, for which the binding result in the assay with MERS-S1^A domain is “no binding (tested: about 5x10^5 ng/ml)”. Also, the dissociation constant (Kd) in [4] is around 0.081 nM. Moreover, in assay [6], the “IC50, neutralization … (H2L2)” value was around 0.00062 µg/mL and the “IC50, neutralization … (human IgG1)” value was around 0.007 µg/mL. In assay [5], the “IC50, neutralisation” value was 0.002 µg/ml and 0.013 nM.

B7: 1H5 heavy chain-only antibody (antibody, V domains shown)
VH: EVQLVESGGGLVQPGGSLRLSCAASGFTFSSYWMLWVRQAPGEGLVWVSRIDSDGSNTTYADSVKGRFTVSRDNAKNTLYLQMNSLRAEDTAVYYCARSGYGYAFDIWGQGTMVTVSS
The molecule B7 gave a Kd in assay [1] of 10.9 nM.

B8: 5.2b7 (antibody, V domains shown)
VH: QVQLVESGGGVVQPGRSLRLSCAASGFTFSSDGMHWVRQAPGKGLEWVAVIWFDGSNKYYADSVKGRFTISRDNSKNTMYLQMNSLRAEDTAVYYCTRDRGITMGRGRYYYYYGMDVWGQGTTVTVSS
VL: EIVMTQSPATLSVSPGERATLSCRASQSVGSNLAWYQQKPGQAPRLLIYGASTRATGIPARFSGSGSGTEFTLTISSLQSEDFAVYYCQQYNNWPLTFGGGTKVEMKR
In the case of B8, in [4], the Kd was around 0.36 nM. In [6], the “IC50, neutralization … (H2L2)” value is around 0.00081 µg/mL.

B9: 3.5g6 (antibody, V domains shown)
VH: QVQLQQSGPGLVKPSQTLSLTCAISGHSVSSNSADWNWIRQSPSRGLEWLGRTYCRSKCYNDYAVSVKSRITINPDTSKNQFSLQLNPVTPEDTAVYYCARSLGSGTYPFDSWGQGTLVTVSS
VL: DIQMTQSPSSLSASVGDRVTITCRASQRISRFLNWYQQTPGKAPKFLIYAASSLQSGVPSRFSGSGSGTDFTLTISSLQPEDFATYYCQQSYSTPLTFGGGTTVEIKR
In the case of B9, in assay [7], the 50% effective concentration (EC50 (read off the curve)) was around 0.2 µg/mL. Moreover, the binding result was “no binding (tested: 25.00 (no unit printed))” with SARS-CoV spike protein, “no binding (tested: about 5x10^5 ng/ml)” in assay [2], “no binding (tested: about 5x10^5 ng/ml)” in assay [3] and “no binding (tested: about 5x10^5 ng/ml)” with MERS-S1^A domain. Besides, the “IC50, MERS-S pseudovirus (human IgG1)” value in assay [6] was determined as 16.6 nM. Further, the “IC50, neutralisation” value in assay [5] came out at 2.49 µg/mL.

B10: 1.17f10 (antibody, V domains shown)
VH: QVQLVESGGGVVQPGRSLRLSCAASGFTFSKYGMHWVRQAPGKGLEWVANIGYDGSDKYYADSVKGRFTISRDNSKNMLYLQMNSLRAEDTAVYFCARGGWIDDYYYGLDVWGQGTTVTVSS
VL: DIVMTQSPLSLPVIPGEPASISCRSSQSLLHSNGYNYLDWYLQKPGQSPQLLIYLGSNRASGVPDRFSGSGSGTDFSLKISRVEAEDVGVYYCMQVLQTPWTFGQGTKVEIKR
Consider B10, for which the binding result in the assay with SARS-CoV spike protein is “no binding (tested: 25.00 (no unit printed))”.

B11: 1.12g2 (antibody, V domains shown)
VH: B10 VH with K31S, N50V, G52C, A61T, K65R, M78T, A88V, V93M, L109M
VL: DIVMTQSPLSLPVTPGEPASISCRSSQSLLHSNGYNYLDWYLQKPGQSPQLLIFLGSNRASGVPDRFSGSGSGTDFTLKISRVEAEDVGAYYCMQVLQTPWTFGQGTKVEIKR
Take B11: the binding result with SARS-CoV spike protein was “no binding (tested: 25.00 (no unit printed))”.

B12: 1.5d6 (antibody, V domains shown)
VH: B10 VH with K31R, N50V, D57N, M78T, Y80S, F95Y, I102N
VL: DIVMTQSPLSLPVIPGEPASISCRSSQSLLHSNGYNYLDWYLQKPGQSPQLLIYLGSNRASGVPDRFSGSGSGTDFTLKISIVEAEDAGVYYCMQVLQTPWTFGQGTKVEIKR
Turning to B12, the binding result in the assay with SARS-CoV spike protein was “no binding (tested: 25.00 (no unit printed))”.

B13: 1.6f9 (antibody, V domains shown)
VH: QVQLVQSGAEVKKPGSSVKVSCKASGGAFSAYVITWVRQAPGQGLEWMGGIIPVFGTAHYAQKFQGRVTITADKSTSTAFMELSSLRSEDTAVYYCAREGDIEVVLAGRGYFDYWGQGTLVTVSS
VL: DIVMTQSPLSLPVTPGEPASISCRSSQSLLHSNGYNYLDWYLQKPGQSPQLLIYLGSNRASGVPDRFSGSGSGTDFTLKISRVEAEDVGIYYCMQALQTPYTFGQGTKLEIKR
Take B13: the binding result in the assay with MERS-S1^A domain is reported as “no binding (tested: about 5x10^5 ng/ml)”. This molecule showed a dissociation constant (Kd) in [4] of around 0.53 nM. In addition, in assay [6], the “IC50, neutralization … (H2L2)” value is around 0.00038 µg/mL and the “IC50, neutralization … (human IgG1)” value was around 0.019 µg/mL. The “IC50, neutralisation” value in [5] is 0.006 µg/ml and 0.04 nM.

B14: 1.13a9 (antibody, V domains shown)
VH: EVQLVESGGGLVQPGGSLRLSCAASGFTFSNYWMTWVRQAPGKGLEWVANIKEDGSEKYYVDSVKGRFTLSRDNAKNSLYLQMNSLRAEDTAVYYCAKEGALLWFGVLRPRAFDIWGQGTMVTVSS
VL: B12 VL with I14T, K44N, Q50H, G56A, I82R, E86A, A88V, V96A, W101Y, V109L
Take B14: the binding result with SARS-CoV spike protein was “no binding (tested: 25.00 (no unit printed))”.

B15: 2.6h11 (antibody, V domains shown)
VH: EVQLVESGGGLVQPGRSLRLSCTASGFTFGDYVMSWFRQAPGKGLEWVGFIRSKAHGGTTEYAASVNGRFSISRDDSKTIAYLQMNSLKSEDTAVYYCTWLRNDYYYGMDVWGLGTTVTVSS
VL: B12 VL with V3M, I14T, S28R, N36S, L38V, N58D, I82R, A88V, V96T
In the case of B15, the figures for the binding result with SARS-CoV spike protein, with peptide 10 and in the assay with peptide 11 were “no binding (tested: 25.00 (no unit printed))”, “no binding” and “no binding”, respectively.

For the origin of these results see patent US20220275059A1 (HARBOUR ANTIBODIES, published 2022).
